Literature values, collected in publication PMC7553146.

Experiments:
Cys145 = Cys145 (UniProt position 3385, FLNGSCGSVGF)
His41 = His41 (UniProt position 3281, VYCPRHVICTA)

For “3C-like main protease (3CL Mpro, nsp5) (Severe acute respiratory syndrome coronavirus (SARS-CoV))”, the pKa (Cys145) is given as 8.0 ± 0.3 and the pKa (His41) is given as 6.3 ± 0.1.
